# Test results reported in patent US20210147523A1 (TEIJIN PHARMA, published 2021).
# T1: human SPNS2 D128A mutant (human, UniProt Q8IVW8 1-549)
# T1 sequence: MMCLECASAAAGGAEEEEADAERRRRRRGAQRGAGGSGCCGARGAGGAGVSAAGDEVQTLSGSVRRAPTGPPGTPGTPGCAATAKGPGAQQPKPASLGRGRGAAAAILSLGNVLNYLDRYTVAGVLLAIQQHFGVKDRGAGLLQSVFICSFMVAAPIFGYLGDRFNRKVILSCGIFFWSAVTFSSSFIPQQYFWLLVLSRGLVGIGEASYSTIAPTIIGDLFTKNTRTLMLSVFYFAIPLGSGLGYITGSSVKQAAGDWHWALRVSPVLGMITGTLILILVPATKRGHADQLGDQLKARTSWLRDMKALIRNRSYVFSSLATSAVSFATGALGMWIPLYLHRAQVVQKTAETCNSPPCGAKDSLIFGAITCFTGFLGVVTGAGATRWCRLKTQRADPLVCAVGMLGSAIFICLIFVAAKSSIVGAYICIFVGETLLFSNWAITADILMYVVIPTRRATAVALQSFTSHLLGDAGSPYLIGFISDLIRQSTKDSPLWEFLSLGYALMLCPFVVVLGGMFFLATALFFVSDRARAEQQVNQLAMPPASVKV
# B1: 53-0707E (antibody, IgG2b, V domains shown)
# VH: EVQLQQSGAELVRPRTSVKLSCKVSGDSITRYYVHFVKQRPGQGLEWIGRIDPEDDTTKYSEKFKKKATLTADASSNTAYLIFSGLTSEDTATYFCSTLTGLDYWGQGVMVTVSS
# VL: DIQMTQSPPVLSTSVGDRVTLRCKASQNVHSKLDWYQQKHGEAPKLLIYYTHNLQTGIPSRFSGSGSGTDYTLTISSLQPEDVATYYCFQYYSGWTFGGGTKLEMKR
# Target: T1, human SPNS2 D128A mutant
# Assay: flow cytometry
binder,measurement,value
B1,binding ratio vs native type,< 0.5 ratio
